Test results from the supplement of paper PMC10201428.
± gives the standard deviation of the averaged measurements.

Assays:
[1] = test system: VchCAST RNA-guided transposition machinery (E. coli BL21(DE3) host, lacZ target); experiment: relative integration efficiency (T-LR orientation) vs wild-type transposon end (log2 (normalized fold change)); transposon end mutated: left end; higher = more efficient transposition
How it was run: (§1)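 Pools of 1549 left-end or 1849 right-end barcoded transposon variants were cloned into a pUC57 mini-transposon donor and co-transformed into E. coli BL21(DE3) with a T7-driven effector plasmid carrying a CRISPR array, tniQ-cas8-cas7-cas6 and tnsA-tnsB-tnsC. Plating used 0.1 mM IPTG at 37°C for 18 h, and input plasmids and genomic integration junctions were PCR-amplified for Illumina sequencing, with two biological output replicates and four reference barcodes. Relative integration efficiency is the log-transformed fold change of output over input barcode abundance, normalised to the reference barcodes.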

[2] = test system: VchCAST RNA-guided transposition machinery (E. coli BL21(DE3) host, lacZ target); experiment: relative integration efficiency (T-RL orientation) vs wild-type transposon end (log2 (normalized fold change)); transposon end mutated: left end; higher = more efficient transposition
How it was run: as §1

| Sequence | relative integration efficiency (log2) [1] | relative integration efficiency (log2) [2] |
| --- | --- | --- |
| AATGTTGTTGATGCAACCATAAAGTGATATTTAATAATTATTTATAATCAGCAACTTAACCACAAAACAACCATATATTGATATCTCACAAAACAACCATACTGGTCGCGGGGGTGTCCGATCTGATTTCAGCAAAACTACTGCAGTAAGAA | -0.966 ± 1.7 | -2.24 ± 0.99 |
| AATGTTGTTGATGCAACCATAAAGTGATATTTAATAATTATTTATAATCAGCAACTTAACCACAAAACAACCATATATTGATATCTCACAAAACAACCATCCTGGTCGCGGGGGTGTCCGATCTGATTTCAGCAAAACTACTGCAGTAAGAA | -0.61 ± 0.64 | -1.99 ± 0.82 |
| AATGTTGTTGATGCAACCATAAAGTGATATTTAATAATTATTTATAATCAGCAACTTAACCACAAAACAACCATATATTGATATCTCACAAAACAACCCGCCTGGTCGCGGGGGTGTCCGATCTGATTTCAGCAAAACTACTGCAGTAAGAA | -1.63 ± 2.3 | -2.27 ± 0.81 |
| AATGTTGTTGATGCAACCATAAAGTGATATTTAATAATTATTTATAATCAGCAACTTAACCACAAAACAACCATATATTGATATCTCACAAAACACAACGCCTGGTCGCGGGGGTGTCCGATCTGATTTCAGCAAAACTACTGCAGTAAGAA | -0.789 ± 1.1 | -2.63 ± 1.3 |
| AATGTTGTTGATGCAACCATAAAGTGATATTTAATAATTATTTATAATCAGCAACTTAACCACAAAACAACCATATATTGATATCTCACAAAACCCAACGCCTGGTCGCGGGGGTGTCCGATCTGATTTCAGCAAAACTACTGCAGTAAGAA | -0.934 ± 0.6 | -2.31 ± 0.93 |
| AATGTTGTTGATGCAACCATAAAGTGATATTTAATAATTATTTATAATCAGCAACTTAACCACAAAACAACCATATATTGATATCTCACAAAAGTTGGTATTCAACTATAAAATGTGAATCGAGTATTTCAGCAAAACTACTGCAGTAAGAA | -0.838 ± 0.94 | -2.5 ± 0.79 |
| AATGTTGTTGATGCAACCATAAAGTGATATTTAATAATTATTTATAATCAGCAACTTAACCACAAAACAACCATATATTGATATCTCACAAACAACCATAAGTTGATATTTTTGTGAATCGAGTATTTCAGCAAAACTACTGCAGTAAGAAA | -0.446 ± 0.92 | -1.69 ± 0.68 |
| AATGTTGTTGATGCAACCATAAAGTGATATTTAATAATTATTTATAATCAGCAACTTAACCACAAAACAACCATATATTGATATCTCACAAACACCAACGCCTGGTCGCGGGGGTGTCCGATCTGATTTCAGCAAAACTACTGCAGTAAGAA | -0.664 ± 1.2 | -2.54 ± 0.9 |
| AATGTTGTTGATGCAACCATAAAGTGATATTTAATAATTATTTATAATCAGCAACTTAACCACAAAACAACCATATATTGATATCTCACAACAACCATAAGTTGATATTTTTGTGAATCGAGTATTTCAGCAAAACTACTGCAGTAAGAAAG | -1.51 ± 0.32 | -3.43 ± 0.95 |
| AATGTTGTTGATGCAACCATAAAGTGATATTTAATAATTATTTATAATCAGCAACTTAACCACAAAACAACCATATATTGATATCTCACAACCACCAACGCCTGGTCGCGGGGGTGTCCGATCTGATTTCAGCAAAACTACTGCAGTAAGAA | -0.813 ± 1.4 | -2.63 ± 0.74 |
| AATGTTGTTGATGCAACCATAAAGTGATATTTAATAATTATTTATAATCAGCAACTTAACCACAAAACAACCATATATTGATATCTCACAACCATAAGTTGATATTTTTGTGAATCGAGTATTTCAGCAAAACTACTGCAGTAAGAAAGTTA | -1.81 ± 1.5 | -3.63 ± 0.88 |
| AATGTTGTTGATGCAACCATAAAGTGATATTTAATAATTATTTATAATCAGCAACTTAACCACAAAACAACCATATATTGATATCTCACACAACCATAAGTTGATATTTTTGTGAATCGAGTATTTCAGCAAAACTACTGCAGTAAGAAAGT | -1.4 ± 0.91 | -3.26 ± 0.94 |
| AATGTTGTTGATGCAACCATAAAGTGATATTTAATAATTATTTATAATCAGCAACTTAACCACAAAACAACCATATATTGATATCTCACACCCACCAACGCCTGGTCGCGGGGGTGTCCGATCTGATTTCAGCAAAACTACTGCAGTAAGAA | -1.23 ± 1.7 | -2.48 ± 0.87 |
| AATGTTGTTGATGCAACCATAAAGTGATATTTAATAATTATTTATAATCAGCAACTTAACCACAAAACAACCATATATTGATATCTCACCAACCATAAGTTGATATTTTTGTGAATCGAGTATTTCAGCAAAACTACTGCAGTAAGAAAGTT | -2.01 ± 2.7 | -3.37 ± 0.94 |
| AATGTTGTTGATGCAACCATAAAGTGATATTTAATAATTATTTATAATCAGCAACTTAACCACAAAACAACCATATATTGATATCTCACCCCCACCAACGCCTGGTCGCGGGGGTGTCCGATCTGATTTCAGCAAAACTACTGCAGTAAGAA | -1.5 ± 1.8 | -2.66 ± 0.95 |
| AATGTTGTTGATGCAACCATAAAGTGATATTTAATAATTATTTATAATCAGCAACTTAACCACAAAACAACCATATATTGATATCTCCAACCATAAGTTGATATTTTTGTGAATCGAGTATTTCAGCAAAACTACTGCAGTAAGAAAGTTAC | -1.44 ± 1.2 | -3.71 ± 1.5 |

| Sequence | relative integration efficiency (log2) [1] | relative integration efficiency (log2) [2] |
| --- | --- | --- |
| AATGTTGTTGATGCAACCATAAAGTGATATTTAATAATTATTTATAATCAGCAACTTAACCACAAAACAACCATATATTGATATCTCCACCCCACCAACGCCTGGTCGCGGGGGTGTCCGATCTGATTTCAGCAAAACTACTGCAGTAAGAA | -0.685 ± 1.1 | -2.45 ± 0.85 |
| AATGTTGTTGATGCAACCATAAAGTGATATTTAATAATTATTTATAATCAGCAACTTAACCACAAAACAACCATATATTGATCGAGACACCCCACCAACGCCTGGTCGCGGGGGTGTCCGATCTGATTTCAGCAAAACTACTGCAGTAAGAA | -2.14 ± 1.3 | -3.99 ± 1.6 |
| AATGTTGTTGATGCAACCATAAAGTGATATTTAATAATTATTTATAATCAGCAACTTAACCACAAAACAACCATATATTGCGCGAGACACCCCACCAACGCCTGGTCGCGGGGGTGTCCGATCTGATTTCAGCAAAACTACTGCAGTAAGAA | -2.63 ± 0.53 | -4.62 ± 1.1 |
| AATGTTGTTGATGCAACCATAAAGTGATATTTAATAATTATTTATAATCAGCAACTTAACCACAAAACAACCATATATTTCGCGAGACACCCCACCAACGCCTGGTCGCGGGGGTGTCCGATCTGATTTCAGCAAAACTACTGCAGTAAGAA | -4.98 ± 3.6 | -6 ± 1.3 |
| AATGTTGTTGATGCAACCATAAAGTGATATTTAATAATTATTTATAATCAGCAACTTAACCACAAAACAACCATCGCGGTCGCGAGACACCCCACCAACGCCTGGTCGCGGGGGTGTCCGATCTGATTTCAGCAAAACTACTGCAGTAAGAA | -3.94 ± 2.1 | -7.35 ± 1.8 |
| AATGTTGTTGATGCAACCATAAAGTGATATTTAATAATTATTTATAATCAGCAACTTAACCACAAAACAACCCGCGCGGTCGCGAGACACCCCACCAACGCCTGGTCGCGGGGGTGTCCGATCTGATTTCAGCAAAACTACTGCAGTAAGAA | -4.43 ± 0.75 | -7.91 ± 1.9 |
| AATGTTGTTGATGCAACCATAAAGTGATATTTAATAATTATTTATAATCAGCAACTTAACCACAAAACACAACGCGCGGTCGCGAGACACCCCACCAACGCCTGGTCGCGGGGGTGTCCGATCTGATTTCAGCAAAACTACTGCAGTAAGAA | -4.26 ± 0.12 | -6.99 ± 3 |
| AATGTTGTTGATGCAACCATAAAGTGATATTTAATAATTATTTATAATCAGCAACTTAACCACAAAACACCCATAAATTGATAATTAACAAAAGTTGGTATTCAACTATAAAATGTGAATCGAGTATTTCAGCAAAACTACTGCAGTAAGAA | -1.11 ± 0.65 | -2.72 ± 0.87 |
| AATGTTGTTGATGCAACCATAAAGTGATATTTAATAATTATTTATAATCAGCAACTTAACCACAAAACACCCATAAATTGATATTGCACAAAAGTTGGTATTCAACTATAAAATGTGAATCGAGTATTTCAGCAAAACTACTGCAGTAAGAA | -0.929 ± 1.3 | -3.12 ± 1 |
| AATGTTGTTGATGCAACCATAAAGTGATATTTAATAATTATTTATAATCAGCAACTTAACCACAAAACCCAACGCGCGGTCGCGAGACACCCCACCAACGCCTGGTCGCGGGGGTGTCCGATCTGATTTCAGCAAAACTACTGCAGTAAGAA | -2.9 ± 0.65 | -7.08 ± 1.4 |
| AATGTTGTTGATGCAACCATAAAGTGATATTTAATAATTATTTATAATCAGCAACTTAACCACAAAAGTTGGTATATAACTATAGAGACAAAACAACCATAAGTTGATATTTTTGTGAATCGAGTATTTCAGCAAAACTACTGCAGTAAGAA | -1.8 ± 1.5 | -2.65 ± 1.1 |
| AATGTTGTTGATGCAACCATAAAGTGATATTTAATAATTATTTATAATCAGCAACTTAACCACAAAATGTGAATCGACAACCATATATTGATATCTCACAAAACAACCATAAGTTGATATTTTGTATTTCAGCAAAACTACTGCAGTAAGAA | -3.12 ± 0.12 | -2.45 ± 0.87 |
| AATGTTGTTGATGCAACCATAAAGTGATATTTAATAATTATTTATAATCAGCAACTTAACCACAAAATGTGAATCGAGTATTCAACCATATATTGATATCTCACAAAACAACCATAAGTTGATATTTTTCAGCAAAACTACTGCAGTAAGAA | -2.89 ± 0.26 | -4 ± 1.4 |
| AATGTTGTTGATGCAACCATAAAGTGATATTTAATAATTATTTATAATCAGCAACTTAACCACAAAATGTGAATCGAGTATTTCAGCAAAACCAACCATATATTGATATCTCACAAAACAACCATAAGTTGATATTTTTACTGCAGTAAGAA | -3.73 ± 1.1 | -4.28 ± 1 |
| AATGTTGTTGATGCAACCATAAAGTGATATTTAATAATTATTTATAATCAGCAACTTAACCACAAAATGTGAATCGAGTATTTCAGCAAAACTACTGCAGTAAGAATCAACCATATATTGATATCTCACAAAACAACCATAAGTTGATATTT | -5.03 ± 3.6 | -5.36 ± 1.6 |
